Reference: publication PMC2831328

Target: HCV NS3 helicase (WT) (Hepatitis C virus (subgenomic replicon …, UniProt Q9WMX2 1027-1657))
Test: competition

HCV NS3 helicase (WT) (Hepatitis C virus, sequence (Q9WMX2 1027-1657): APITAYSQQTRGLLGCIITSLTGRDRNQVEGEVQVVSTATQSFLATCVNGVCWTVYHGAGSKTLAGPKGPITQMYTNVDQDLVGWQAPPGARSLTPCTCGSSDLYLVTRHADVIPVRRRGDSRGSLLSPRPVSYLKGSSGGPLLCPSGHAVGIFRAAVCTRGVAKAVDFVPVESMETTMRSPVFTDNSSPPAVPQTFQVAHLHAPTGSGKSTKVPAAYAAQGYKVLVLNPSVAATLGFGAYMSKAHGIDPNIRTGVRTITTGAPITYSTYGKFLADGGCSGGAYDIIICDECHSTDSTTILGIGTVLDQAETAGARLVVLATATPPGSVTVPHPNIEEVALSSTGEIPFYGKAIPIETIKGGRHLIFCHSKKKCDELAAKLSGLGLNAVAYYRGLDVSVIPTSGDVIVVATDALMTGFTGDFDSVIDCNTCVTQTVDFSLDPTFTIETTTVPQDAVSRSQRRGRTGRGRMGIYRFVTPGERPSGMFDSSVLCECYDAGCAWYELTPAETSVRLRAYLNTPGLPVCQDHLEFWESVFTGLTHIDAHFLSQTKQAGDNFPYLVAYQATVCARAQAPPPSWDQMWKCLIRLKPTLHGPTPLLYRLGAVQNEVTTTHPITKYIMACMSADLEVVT

B1: ds9 (competitor duplex) (dsRNA)
RNA 1: GCCGCCCGG
RNA 2: CCGGGCGGC
- Ki: 90 ± 20 nM
